Reference: patent US7838288B2, “Modulators of odorant receptors” (Duke University, priority 2004, dated 2010)

Columns and labels:
Assay type in all cases: cell-based, mouse
Details in all cases: accessory protein co-transfected in 293T cells
[1] = test system: MOR203-1; experiment: Living-cell staining of cell-surface MOR203-1
Excerpt: After hypothesizing that mammalian ORs require accessory protein(s) for functional cell surface expression, a search was instituted for detecting such molecule(s). Long-SAGE (serial analysis of gene expression) libraries (see, e.g., Saha, S., et al., (2002) Nat Biotechnol 20, 508-512; herein incorporated by reference in its entirety) were constructed from single olfactory neurons as well as neurons from the vomeronasal organ and genes were collected that are expressed by these neurons. To identify candidate genes expressed by the olfactory neurons Digital Differential Display (see, e.g., http://www, followed by, .ncbi.nlm.nih.gov/UniGene/info_ddd.shtml) was also used. Candidate genes were investigated for ORFs that encode membrane associated proteins. Genes were selected with similarities to known chaperones and cloned the cDNAs from olfactory epithelium cDNAs. The mRNA expression of each gene was verified by in situ hybridization. After isolating and subcloning into mammalian expression vectors, each cDNA together with a mouse OR (MOR203-1) tagged with a 20 N-terminal amino acids of rhodopsin (Rho-tag), was transfected into 293T cells. We measured whether these clones had any effect on the cell-surface expression of ORs by staining living cells using antibodies against the Rho-tag (see, e.g., Laird, D. W., and Molday, R. S. (1988) Invest Opthalmol Vis Sci 29, 419-428; herein incorporated by reference in its entirety). When MOR203-1 was transfected alone, antibody staining detected only faint cell-surface expression in less than 1% of the cells. A schematic diagram outlining the screening procedure utilized with the present invention is provided at FIG. 1.
(§1) 293T cells were maintained in minimal essential medium containing 10% fetal bovine serum (M10). Lipofectamine 2000 (Invitrogen) was used for transfection. In live-cell staining, 16 hours after transfection, cells were incubated in M10 containing anti rhodopsin antibody, 4D2 (see, e.g., Laird, D. W., and Molday, R. S. (1988) Invest Opthalmol V is Sci 29, 419-428; herein incorporated by reference in its entirety) and 15 mM NaN3 at 4 degrees C. for 1 hour. After washing, cells were incubated with Cy3-conjugated anti mouse IgG (Jackson Immunologicals), washed and mounted. For FACS analysis, 4D2 and PE-conjugated anti mouse IgG (Jackson Immunologicals) were used to monitor the Rho tagged receptor expression. Anti HA rabbit antibodies (Sigma) and Alexa 488 conjugated anti rabbit IgG (Molecular Probes) was used to stain the HA-β2 adrenergic receptor. To establish the Hana3a cells, 1 ug/ml of puromycin was used for selection. 96 colonies were picked and assayed using luciferase assay using OREG.

[2] = test system: 23-1; experiment: Living-cell staining of cell-surface 23-1
Protocol: as §1

[3] = test system: OREG; experiment: Living-cell staining of cell-surface OREG
Protocol: The proteins encoded by these clones were named REEP1, for Receptor Expression Enhancing Protein 1 and RTP1, for Receptor Transporting Protein 1. Subsequently, RTP2 was found, a close relative of RTP1. […] Next, REEP1, RTP1, and RTP2 were tested to detect a similar effect in promoting cell-surface expression of other ORs. Four different ORs (mouse OREG, mouse olfr62, mouse OR-S46 and rat I7) were expressed in 293T cells with or without REEP1, RTP1, or RTP2. […] Additionally, ORs transfected with REEP and/or RTP generated more immunofluorescent cells and stronger signals in positive cells compared with ORs without REEP and/or RTP (see FIG. 2A). The signal intensity and the number of immunopositive cells varied when using different ORs at each condition. […] Nonetheless, occasional immunopositive cells were observed only when the accessory proteins were co-expressed. The effects of RTP1 or RTP2 were consistently more robust than that of REEP1. […]

[4] = test system: olfr62; experiment: Living-cell staining of cell-surface olfr62
Protocol: The proteins encoded by these clones were named REEP1, for Receptor Expression Enhancing Protein 1 and RTP1, for Receptor Transporting Protein 1. Subsequently, RTP2 was found, a close relative of RTP1. […] Next, REEP1, RTP1, and RTP2 were tested to detect a similar effect in promoting cell-surface expression of other ORs. Four different ORs (mouse OREG, mouse olfr62, mouse OR-S46 and rat I7) were expressed in 293T cells with or without REEP1, RTP1, or RTP2. […] Additionally, ORs transfected with REEP and/or RTP generated more immunofluorescent cells and stronger signals in positive cells compared with ORs without REEP and/or RTP (see FIG. 2A). The signal intensity and the number of immunopositive cells varied when using different ORs at each condition. […] Nonetheless, occasional immunopositive cells were observed only when the accessory proteins were co-expressed. The effects of RTP1 or RTP2 were consistently more robust than that of REEP1. The enhancement of cell-surface expression was specific for ORs and not for other GPCRs: neither REEP and/or RTP enhanced expression of the β2 adrenergic receptor, mT2R5 (a mouse bitter taste receptor) (see, e.g., Chandrashekar, J., et al. (2000) Cell 100, 703-711; herein incorporated by reference in its entirety), or a V2R pheromone receptor (VR4) (see, e.g., Matsunami, H., and Buck, L. B. (1997) Cell 90, 775-784; herein incorporated by reference in its entirety) (see FIG. 2A and FIG. 3). Finally, enhancement of cell-surface expression of MOR203-1 was not observed when other members of the REEP and RTP families (REEP2 and RTP4) were co-expressed.
as §1

B1: RTP1-A1: RTP1 variant from deleting portions of RTP1-A; murine SEQ ID NO: 46, human SEQ ID NO: 47 (protein, listed as Mus musculus)
chain: MCKSVTTGEWKKVFYEKMEEVKPADSWDFIIDPNLKHNVLAPGWKQYLELHASGRFHCSWCWHTWQSPHVVILFHMYLDKAQRAGSVRMRVFKQLCYECGTARLDESSMLEENIESLVDNLITSLREQCYGERGGHYRIHVASRQDNRRHRGEFCEACQEGIVHWKPSEKLLEEEATTYTFSRAPSPTKPQAETGSGCNFCSIPWCLFWATVLMLIIYLQFSFRTSV
Increased cell-surface staining: cell surface expression of MOR203-1 [1] | cell-surface expression of 23-1 [2] | cell-surface expression of OREG [3] | cell-surface expression of olfr62 [4]
